Assays:
[1] = target: human growth hormone receptor on IM-9 cells (human) (UniProt P10912); test: cell-based or functional assay
[2] = target: T1, full length rat GHR (L43R) on BAF3 cells (clone 2E2-2B12-F4) (rat) (UniProt P16310); test: cell-based or functional assay
T1 sequence (looked up): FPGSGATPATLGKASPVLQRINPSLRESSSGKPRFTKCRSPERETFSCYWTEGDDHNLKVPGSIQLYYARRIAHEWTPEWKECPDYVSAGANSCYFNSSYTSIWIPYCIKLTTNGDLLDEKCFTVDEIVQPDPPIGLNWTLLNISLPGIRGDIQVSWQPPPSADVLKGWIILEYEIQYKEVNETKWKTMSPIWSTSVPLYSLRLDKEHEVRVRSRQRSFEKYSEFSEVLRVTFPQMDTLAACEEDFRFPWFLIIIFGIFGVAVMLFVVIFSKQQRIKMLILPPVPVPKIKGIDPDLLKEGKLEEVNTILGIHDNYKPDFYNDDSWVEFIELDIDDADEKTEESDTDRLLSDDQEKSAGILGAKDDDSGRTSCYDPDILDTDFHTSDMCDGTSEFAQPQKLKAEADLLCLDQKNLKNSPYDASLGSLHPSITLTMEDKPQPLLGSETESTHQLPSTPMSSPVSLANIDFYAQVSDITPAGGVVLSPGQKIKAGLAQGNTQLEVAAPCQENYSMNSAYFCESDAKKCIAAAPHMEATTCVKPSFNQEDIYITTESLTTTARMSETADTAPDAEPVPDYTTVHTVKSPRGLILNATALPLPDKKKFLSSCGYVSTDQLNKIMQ

[3] = target: T2, human growth hormone receptor on IM-9 cells (human, UniProt P10912 19-638); test: cell-based or functional assay
T2 sequence (looked up): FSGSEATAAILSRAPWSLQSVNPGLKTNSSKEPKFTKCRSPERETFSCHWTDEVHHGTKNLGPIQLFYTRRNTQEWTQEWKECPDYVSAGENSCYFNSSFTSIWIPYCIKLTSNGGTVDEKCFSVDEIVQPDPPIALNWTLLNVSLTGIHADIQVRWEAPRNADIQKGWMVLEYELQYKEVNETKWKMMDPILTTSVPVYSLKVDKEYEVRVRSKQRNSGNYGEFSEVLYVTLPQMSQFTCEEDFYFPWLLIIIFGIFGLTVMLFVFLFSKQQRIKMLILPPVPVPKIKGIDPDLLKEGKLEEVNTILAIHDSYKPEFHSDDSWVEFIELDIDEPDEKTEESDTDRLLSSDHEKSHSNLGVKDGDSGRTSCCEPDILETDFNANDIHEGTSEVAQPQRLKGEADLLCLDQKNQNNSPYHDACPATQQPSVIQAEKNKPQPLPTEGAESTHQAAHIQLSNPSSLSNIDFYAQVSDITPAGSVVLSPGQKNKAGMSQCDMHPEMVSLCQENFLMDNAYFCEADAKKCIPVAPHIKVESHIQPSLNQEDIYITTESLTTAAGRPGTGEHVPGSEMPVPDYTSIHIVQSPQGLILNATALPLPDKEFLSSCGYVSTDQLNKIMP

[4] = target: T3, rat GHR ECD (L43R), soluble, C-terminal 6His (rat, UniProt P16310 47-256); test: Biacore SPR; rat GHR ECD (L43R) on CM5 chip, GH injected; bivalent analyte model
T3 construct: also called soluble GHR ECD; rat GHR (L43R) extra cellular domain; not shown: C-terminal 6His tag of pET20b
T3 sequence (looked up): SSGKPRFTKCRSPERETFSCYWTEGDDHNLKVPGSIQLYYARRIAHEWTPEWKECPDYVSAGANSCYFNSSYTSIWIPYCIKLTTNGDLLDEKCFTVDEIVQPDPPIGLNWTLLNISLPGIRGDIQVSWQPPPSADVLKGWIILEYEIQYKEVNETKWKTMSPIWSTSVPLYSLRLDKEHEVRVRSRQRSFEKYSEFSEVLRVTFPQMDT

hGH Y143pAF-30KPEG (from UniProt P01241 27-217) (ligand)
pSTAT5 EC50 (IM-9) (nM as headed; WHO hGH expressed as unity) [1]: 12.3
Proliferation EC50 (BrdU, rat GHR (L43R) BAF3 cells) (nM as headed; WHO hGH expressed as unity) [2]: 6.6

hGH G131pAF-30KPEG (from UniProt P01241 27-217) (ligand)
pSTAT5 EC50 (IM-9) (nM as headed; WHO hGH expressed as unity) [1]: 23.8
Proliferation EC50 (BrdU, rat GHR (L43R) BAF3 cells) (nM as headed; WHO hGH expressed as unity) [2]: 4.6

hGH K145pAF-30KPEG (from UniProt P01241 27-217) (ligand)
pSTAT5 EC50 (IM-9) (nM as headed; WHO hGH expressed as unity) [1]: 20.6
Proliferation EC50 (BrdU, rat GHR (L43R) BAF3 cells) (nM as headed; WHO hGH expressed as unity) [2]: 5.3

hGH R134pAF-20KPEG (from UniProt P01241 27-217) (ligand)
pSTAT5 EC50 (IM-9) (nM as headed; WHO hGH expressed as unity) [1]: 5.3

hGH Y35pAF-40KPEG (from UniProt P01241 27-217) (ligand)
pSTAT5 EC50 (IM-9) (nM as headed; WHO hGH expressed as unity) [1]: 53.3
Proliferation EC50 (BrdU, rat GHR (L43R) BAF3 cells) (nM as headed; WHO hGH expressed as unity) [2]: 24

B1: rat GH WT (ligand, UniProt P01244 27-216, looked up)
chain: FPAMPLSSLFANAVLRAQHLHQLAADTYKEFERAYIPEGQRYSIQNAQAAFCFSETIPAPTGKEEAQQRTDMELLRFSLLLIQSWLGPVQFLSRIFTNSLMFGTSDRVYEKLKDLEEGIQALMQELEDGSPRIGQILKQTYDKFDANMRSDDALLKNYGLLSCFKKDLHKAETYLRVMKCRRFAESSCAF
notes: also called rat growth hormone
EC50 (nM), STAT5 phosphorylation in IM-9 cells [3]: > 200000 nM
Kd [4]: 250 nM
koff [4]: 0.0083 s⁻¹
kon [4]: 33000 M⁻¹ s⁻¹

Source: patent US20060189529A1 (AMBRX, published 2006)
